{
  "source": "paper PMC4990970",
  "about": "(Scientific Reports, 2016)",
  "binders": {"B1": {"name": "AtBAG5-IQR (AtBAG5-long with Ile57, Gln58 and Arg62 substituted with alanine) (domain or fragment)", "chain": "NATAAAARAASGYASYRIRNLYKKISSINREANRVQSIIQRQETVDAIRSDEKERLRMNETLMALLLKLDSVPGLDPTIREARRKVSRKIVGMQEILDSISETKD", "notes": "AtBAG5, Arabidopsis thaliana, residues 49-153 (AtBAG5-long) with three conserved residues of the IQ motif changed to alanine; also called IQ motif mutant; AtBAG5-IQR mutant; source: Escherichia coli, purified using chromatography techniques"}},
  "key": {"[1]": {"biological_target": "T1, Calmodulin (CaM) (UniProt P0DP23 1-149)", "T1 construct": "Calmodulin, full length; apo-CaM (5 mM EGTA) and holo-CaM (10 mM CaCl2) are the same protein; the assays tell them apart; Se-Met-substituted apo-CaM was used for anomalous signals in the structure determination; also called apo-CaM; Ca2+-free CaM; source: Escherichia coli, purified using chromatography techniques", "assay": "ITC; iTC200, room temperature, 20 mM Tris-HCl pH 7.5, 500 mM NaCl, 5 mM EGTA (apo-CaM, absence of calcium); 0.05-0.1 mM in the cell, 0.5-1.0 mM in the syringe", "settings": "both partners purified"}, "[2]": {"biological_target": "T1, Calmodulin (CaM)", "assay": "ITC; iTC200, room temperature, 20 mM Tris-HCl pH 7.5, 500 mM NaCl, 10 mM CaCl2 (holo-CaM, presence of calcium); 0.05-0.1 mM in the cell, 0.5-1.0 mM in the syringe", "settings": "both partners purified"}},
  "data": [
    {"binder": "B1", "values": [
      {"measurement": "Kd", "setting": "[1]", "value": 1160, "unit": "µM"},
      {"measurement": "Kd", "setting": "[2]", "value": 7.14, "unit": "µM"}
    ]}
  ]
}
